Our source for the binding result and EC50 values is US20200247897A1 (Genmab, published 2020).

For one experiment, the target named is T1, murine DR5 (mouse (Mus musculus), UniProt Q9QZM4 53-381).
T1 construct: also called mouse DR5
In words: flow cytometry on transfected CHO cells.

In experiment [1] the target is T2, human DR5 (death receptor 5) on DR5-positive human colon cancer cells (human, UniProt O14763 56-440).
T2 construct: Endogenous receptor of the cell lines; also called CD262; TRAILR2
In words: flow cytometry on HCT 116 cells.

The target of experiment [2] is T3, cynomolgus monkey DR5 protein with deletion of amino acids 185-213 and death domain loss-of-function mutation … (cynomolgus monkey (Macaca fascicularis)).
T3 construct: also called Cyno DR5Mfdel-K420N
T3 chain: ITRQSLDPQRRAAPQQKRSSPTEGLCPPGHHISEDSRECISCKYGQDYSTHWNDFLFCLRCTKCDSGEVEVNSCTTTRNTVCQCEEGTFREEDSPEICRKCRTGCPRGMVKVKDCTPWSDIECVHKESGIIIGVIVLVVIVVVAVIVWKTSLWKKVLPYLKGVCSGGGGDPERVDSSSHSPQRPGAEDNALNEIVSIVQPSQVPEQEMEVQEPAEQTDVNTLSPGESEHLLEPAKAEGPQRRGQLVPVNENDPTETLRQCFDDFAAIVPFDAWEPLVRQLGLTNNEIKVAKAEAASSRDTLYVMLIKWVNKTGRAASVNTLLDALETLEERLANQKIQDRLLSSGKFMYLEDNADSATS
In words: flow cytometry on cynomolgus DR5-transfected CHO cells; four experiments.

T1 sequence (Q9QZM4 53-381 limits assumed): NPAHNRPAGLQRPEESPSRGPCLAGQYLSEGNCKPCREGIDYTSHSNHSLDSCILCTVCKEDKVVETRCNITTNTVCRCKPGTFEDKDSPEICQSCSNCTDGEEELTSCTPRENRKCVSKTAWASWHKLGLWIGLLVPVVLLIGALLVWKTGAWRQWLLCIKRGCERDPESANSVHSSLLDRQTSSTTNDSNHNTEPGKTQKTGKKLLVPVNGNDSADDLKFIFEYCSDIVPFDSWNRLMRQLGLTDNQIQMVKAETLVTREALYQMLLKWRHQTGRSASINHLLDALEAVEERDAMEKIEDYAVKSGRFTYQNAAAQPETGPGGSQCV

B1: IgG1-hDR5-05-F405L (antibody, name in EU numbering)
heavy: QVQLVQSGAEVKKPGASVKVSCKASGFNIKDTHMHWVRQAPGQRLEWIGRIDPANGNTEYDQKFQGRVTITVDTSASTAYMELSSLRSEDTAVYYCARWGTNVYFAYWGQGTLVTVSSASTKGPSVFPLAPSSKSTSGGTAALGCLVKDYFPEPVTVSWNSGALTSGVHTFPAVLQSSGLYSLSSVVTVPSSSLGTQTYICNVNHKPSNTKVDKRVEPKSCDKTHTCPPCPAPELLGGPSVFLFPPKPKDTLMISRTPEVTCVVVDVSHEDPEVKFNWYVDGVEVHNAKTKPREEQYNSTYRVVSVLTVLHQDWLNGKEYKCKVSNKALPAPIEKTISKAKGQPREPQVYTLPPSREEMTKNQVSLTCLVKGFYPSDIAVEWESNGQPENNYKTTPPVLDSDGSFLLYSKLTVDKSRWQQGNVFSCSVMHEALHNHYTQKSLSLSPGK
light: DIQLTQSPSSLSASVGDRVTITCSASSSVSYMYWYQQKPGKAPKPWIYRTSNLASGVPSRFSGSGSGTDFTLTISSLQPEDFATYYCQQYHSYPPTFGGGTKVEIKRTVAAPSVFIFPPSDEQLKSGTASVVCLLNNFYPREAKVQWKVDNALQSGNSQESVTEQDSKDSTYSLSSTLTLSKADYEKHKVYACEVTHQGLSSPVTKSFNRGEC
notes: Expressed as IgG1,kappa; also called humanized DR5-05
Regarding B1, the binding result with murine DR5 is on record as “no binding (tested: 10 µg/mL)”.

B2: IgG1-hDR5-05-N55D-F405L (antibody, V domains shown)
VH: QVQLVQSGAEVKKPGASVKVSCKASGFNIKDTHMHWVRQAPGQRLEWIGRIDPADGNTEYDQKFQGRVTITVDTSASTAYMELSSLRSEDTAVYYCARWGTNVYFAYWGQGTLVTVSS
VL: DIQLTQSPSSLSASVGDRVTITCSASSSVSYMYWYQQKPGKAPKPWIYRTSNLASGVPSRFSGSGSGTDFTLTISSLQPEDFATYYCQQYHSYPPTFGGGTKVEIKR
Turning to B2, in experiment [1], the binding result is given as “binds”.

B3: IgG1-hDR5-05-E430G (antibody)
heavy: not shown
light: B1 light
Take B3: in experiment [2], the EC50 was determined as 0.17 µg/mL.
